# US20250042956A1 (University of California, published 2025)
# T1: AT2G23380.1 CLF (Arabidopsis thaliana, UniProt P93831 1-902)
# T1 construct: Endogenous protein found by mass spectrometry; also called CURLY LEAF
# T1 sequence (looked up): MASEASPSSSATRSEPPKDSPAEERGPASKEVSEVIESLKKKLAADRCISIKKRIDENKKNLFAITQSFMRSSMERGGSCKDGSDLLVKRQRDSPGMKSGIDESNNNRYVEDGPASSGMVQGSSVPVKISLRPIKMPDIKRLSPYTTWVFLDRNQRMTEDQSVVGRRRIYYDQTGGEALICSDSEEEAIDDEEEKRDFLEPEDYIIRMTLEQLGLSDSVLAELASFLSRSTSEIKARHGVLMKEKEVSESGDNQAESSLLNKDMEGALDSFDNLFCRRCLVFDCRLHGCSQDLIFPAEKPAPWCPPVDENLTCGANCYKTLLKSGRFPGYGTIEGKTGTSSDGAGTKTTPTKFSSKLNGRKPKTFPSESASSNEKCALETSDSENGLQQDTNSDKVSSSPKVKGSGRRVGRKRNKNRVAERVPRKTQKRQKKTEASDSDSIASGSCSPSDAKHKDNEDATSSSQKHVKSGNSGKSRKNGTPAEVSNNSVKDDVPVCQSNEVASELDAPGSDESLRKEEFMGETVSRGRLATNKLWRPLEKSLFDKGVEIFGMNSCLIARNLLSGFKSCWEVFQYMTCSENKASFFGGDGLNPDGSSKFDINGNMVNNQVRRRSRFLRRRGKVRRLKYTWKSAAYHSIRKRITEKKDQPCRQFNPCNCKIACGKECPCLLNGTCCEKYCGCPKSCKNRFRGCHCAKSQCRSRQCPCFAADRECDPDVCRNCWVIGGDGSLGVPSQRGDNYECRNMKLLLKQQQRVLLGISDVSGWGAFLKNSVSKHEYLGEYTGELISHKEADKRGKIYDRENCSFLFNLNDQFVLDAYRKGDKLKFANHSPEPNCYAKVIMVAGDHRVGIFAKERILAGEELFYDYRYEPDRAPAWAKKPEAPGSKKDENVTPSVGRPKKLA
# T2: AT3G10480.3 NAC050 (Arabidopsis thaliana, UniProt Q9SQX9 1-447, limits assumed)
# T2 construct: Endogenous protein found by mass spectrometry
# T2 sequence (looked up): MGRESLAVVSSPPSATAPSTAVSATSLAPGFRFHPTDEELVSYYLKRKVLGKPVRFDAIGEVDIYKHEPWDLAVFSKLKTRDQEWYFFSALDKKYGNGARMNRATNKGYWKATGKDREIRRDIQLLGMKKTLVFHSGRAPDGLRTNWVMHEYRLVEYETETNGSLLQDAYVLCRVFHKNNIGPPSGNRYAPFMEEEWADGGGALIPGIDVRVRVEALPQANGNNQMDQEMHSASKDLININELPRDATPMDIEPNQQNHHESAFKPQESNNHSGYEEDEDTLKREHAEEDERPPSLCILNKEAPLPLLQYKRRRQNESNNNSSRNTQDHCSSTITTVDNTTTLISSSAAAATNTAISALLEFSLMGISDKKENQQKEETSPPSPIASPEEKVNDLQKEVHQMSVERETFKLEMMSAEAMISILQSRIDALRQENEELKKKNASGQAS
# T3: AT5G51230.1 EMF2 (Arabidopsis thaliana, UniProt Q8L6Y4 1-631)
# T3 construct: Endogenous protein found by mass spectrometry; also called EMBRYONIC FLOWER 2
# T3 sequence (looked up): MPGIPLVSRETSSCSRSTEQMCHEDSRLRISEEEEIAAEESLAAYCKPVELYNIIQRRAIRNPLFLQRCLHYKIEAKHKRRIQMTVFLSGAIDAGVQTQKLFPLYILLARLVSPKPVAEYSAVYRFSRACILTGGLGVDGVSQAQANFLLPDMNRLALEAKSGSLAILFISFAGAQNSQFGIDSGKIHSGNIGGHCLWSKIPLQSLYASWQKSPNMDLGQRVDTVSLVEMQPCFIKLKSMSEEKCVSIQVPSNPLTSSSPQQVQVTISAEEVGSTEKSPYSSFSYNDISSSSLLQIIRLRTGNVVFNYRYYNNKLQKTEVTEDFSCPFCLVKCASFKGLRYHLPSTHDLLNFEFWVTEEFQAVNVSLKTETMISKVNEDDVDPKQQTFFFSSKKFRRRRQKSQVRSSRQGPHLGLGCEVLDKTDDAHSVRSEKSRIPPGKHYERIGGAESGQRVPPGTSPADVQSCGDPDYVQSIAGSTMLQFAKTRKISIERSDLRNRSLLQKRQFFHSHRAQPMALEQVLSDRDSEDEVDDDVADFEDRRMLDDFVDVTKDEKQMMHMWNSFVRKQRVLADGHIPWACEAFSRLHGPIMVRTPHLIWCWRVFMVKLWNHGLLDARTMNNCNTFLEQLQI
# T4: AT1G49950.3 TRB1 (Arabidopsis thaliana, UniProt Q8VWK4 1-300, limits assumed)
# T4 construct: Endogenous protein found by mass spectrometry
# T4 sequence: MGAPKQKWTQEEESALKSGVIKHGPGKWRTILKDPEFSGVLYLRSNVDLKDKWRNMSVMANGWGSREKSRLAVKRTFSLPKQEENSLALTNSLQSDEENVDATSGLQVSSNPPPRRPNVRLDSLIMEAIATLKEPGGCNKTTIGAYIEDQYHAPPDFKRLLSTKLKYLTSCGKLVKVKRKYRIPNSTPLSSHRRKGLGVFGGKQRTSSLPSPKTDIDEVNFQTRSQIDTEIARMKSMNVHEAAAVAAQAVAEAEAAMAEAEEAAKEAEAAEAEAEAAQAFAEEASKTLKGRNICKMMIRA
# T5: AT3G49850.1 TRB3 (Arabidopsis thaliana, UniProt Q9M2X3 1-295)
# T5 construct: Endogenous protein found by mass spectrometry
# T5 sequence: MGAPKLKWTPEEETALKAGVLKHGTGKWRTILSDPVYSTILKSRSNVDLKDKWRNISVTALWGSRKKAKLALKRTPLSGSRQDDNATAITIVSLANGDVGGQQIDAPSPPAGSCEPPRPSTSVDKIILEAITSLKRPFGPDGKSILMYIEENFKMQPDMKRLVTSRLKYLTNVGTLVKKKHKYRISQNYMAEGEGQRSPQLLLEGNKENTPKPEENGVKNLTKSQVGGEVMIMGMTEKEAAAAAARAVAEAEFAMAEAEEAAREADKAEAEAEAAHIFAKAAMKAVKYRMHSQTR
# B1: TRBIP2 (bait of the TRBIP2 IP-MS) (other, not shown: small tags and cut ends)
# chain: MATNACLESDSLLPPRKRLLAGFKNQNSRISNESPSPPFASSSSSTTTSNGSSASAVVHTHHLDHLLNDQTRSPEELAQASKATAALAVKVAKAARATANEKAIIASKAVAAAKNALELFASFPAAETVSCKEPRLIRAINNSPRVLTDCSGHRNKKQKTLTSTMNDGNDVAGVVDSDDGTRVNGKLLLCDNTLKEKTEEESSSLGKRRGRVKLPLSMCAYKDQENGITLEENNLSVSKSEGYNGGVAQVIERPSWKCQDLKSPECVKQNKVVRS
# notes: tag and its position not described; also called TRBIP2-1; TRBIP2-2
# Columns and labels:
# Test in all cases: IP-MS rep 1
# AT2G23380.1 CLF = molecular target: T1, AT2G23380.1 CLF
# Outline: (§1)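 Unopened floral buds (ten grams) from wild-type and FLAG-tagged transgenic Arabidopsis lines were ground in liquid nitrogen, homogenised in 25 mL IP buffer and passed through Miracloth. The lysates were mixed with 250 μL anti-FLAG M2 magnetic beads for 2 hours at 4° C, then washed and eluted in TBS containing 250 μg/mL 3×FLAG peptides. Peptide counts for co-purified proteins were obtained by mass spectrometry of the eluted proteins after trichloroacetic acid precipitation.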
# AT3G10480.3 NAC050 = molecular target: T2, AT3G10480.3 NAC050
# Outline: as §1
# AT5G51230.1 EMF2 = molecular target: T3, AT5G51230.1 EMF2
# Outline: as §1
# AT5G08450.1 HDC1 = molecular target: T6, AT5G08450.1 HDC1 (Arabidopsis thaliana)
# T6 construct: Endogenous protein found by mass spectrometry
# Outline: as §1
# AT1G49950.3 TRB1 = molecular target: T4, AT1G49950.3 TRB1
# Outline: as §1
# AT3G49850.1 TRB3 = molecular target: T5, AT3G49850.1 TRB3
# Outline: as §1
binder,measurement,setting,value
B1,IP-MS count,AT2G23380.1 CLF,0
same,IP-MS count,AT3G10480.3 NAC050,1
same,IP-MS count,AT5G51230.1 EMF2,0
same,IP-MS count,AT5G08450.1 HDC1,2
same,IP-MS count,AT1G49950.3 TRB1,26
same,IP-MS count,AT3G49850.1 TRB3,8
